B3: N-terminal domain mutant protein of KaiC, residues 1 to 268 (KaiCN) (domain or fragment, UniProt Q79V60 1-268, looked up)
chain: MTNLPEHQSSPTEQSSAEVKKIPTMIEGFDDISHGGLPQGRTTLVSGTSGTGKTLFAVQFLYNGITIFNEPGIFVTFEESPQDIIKNALSFGWNLQSLIDQGKLFILDASPDPDGQEVAGDFDLSALIERIQYAIRKYKATRVSIDSVTAVFQQYDAASVVRREIFRLAFRLKQLGVTTIMTTERVDEYGPVARFGVEEFVSDNVVILRNVLEGERRRRTVEILKLRGTTHMKGEYPFTINNGINIFPLGAMRLTQRSSNVRVSSGVK
notes: KaiC, Thermosynechococcus elongatus BP-1, N-terminal domain, residues 1-268; Used as monomer (no ATP) and as hexamer (with ATP or Mg-ATP); the assay tells which; also called KaiCN^1mer; KaiCN^6mer
B4: KaiC_(S431D&T432D) (KaiCDD) (natural protein, UniProt Q79V60 1-518, looked up)
chain: MTNLPEHQSSPTEQSSAEVKKIPTMIEGFDDISHGGLPQGRTTLVSGTSGTGKTLFAVQFLYNGITIFNEPGIFVTFEESPQDIIKNALSFGWNLQSLIDQGKLFILDASPDPDGQEVAGDFDLSALIERIQYAIRKYKATRVSIDSVTAVFQQYDAASVVRREIFRLAFRLKQLGVTTIMTTERVDEYGPVARFGVEEFVSDNVVILRNVLEGERRRRTVEILKLRGTTHMKGEYPFTINNGINIFPLGAMRLTQRSSNVRVSSGVKTLDEMCGGGFFKDSIILATGATGTGKTLLVSKFLETGCQQGERALLFAYEESRAQLSRNASSWGIDFEELERRGLLRIICAYPESAGLEDHLQIIKSEIADFKPSRVAIDSLSALARGVSNNAFRQFVIGVTGFAKQEEITGFFTNTTDQFMGSNSITESHIDDITDTILLLQYVEIRGEMSRAINVFKMRGSWHDKGIREYVITEKGAEIRDSFRNFEGIISGTPTRISVDEKTELARIAKGMQDLESE
notes: KaiC, Thermosynechococcus elongatus BP-1, subunit of 518 amino acid residues, aspartate at the two phosphorylation sites; Used as monomer (KaiC^1mer, no ATP) and as hexamer (KaiC^6mer; with Mg-ATP, ATP, Mg-AMPPNP, Mg-ATPγS or Mg-ADP-AlFx); the assay tells which; also called KaiCDD^1mer; KaiCDD^6mer

In data set [1] the target is B4. Put plainly: native gel or EMSA; KaiBWT (1 μM) or KaiB1-94 (2 μM) with 1 μM KaiCDD hexamer in reaction buffer (20 mM HEPES-NaOH pH 7.5, 150 mM NaCl) with Mg-ATP at 40 °C, time course; 10 % native gel, CBB, densitometry. The following applies: both partners purified.
In another data set the target is T1, KaiC_(K53H/DD) (Thermosynechococcus elongatus BP-1 …, UniProt Q79V60 1-518, K53H | S431D | T432D).
T1 construct: KaiC, Thermosynechococcus elongatus BP-1, 518 residues, K53H in the N-terminal Walker's motif A plus the DD mutation; Used as monomer (no ATP) and as hexamer (with Mg-ATP); the assay tells which; also called KaiC_(K53H/DD)^1mer; KaiC_(K53H/DD)^6mer
T1 sequence (looked up): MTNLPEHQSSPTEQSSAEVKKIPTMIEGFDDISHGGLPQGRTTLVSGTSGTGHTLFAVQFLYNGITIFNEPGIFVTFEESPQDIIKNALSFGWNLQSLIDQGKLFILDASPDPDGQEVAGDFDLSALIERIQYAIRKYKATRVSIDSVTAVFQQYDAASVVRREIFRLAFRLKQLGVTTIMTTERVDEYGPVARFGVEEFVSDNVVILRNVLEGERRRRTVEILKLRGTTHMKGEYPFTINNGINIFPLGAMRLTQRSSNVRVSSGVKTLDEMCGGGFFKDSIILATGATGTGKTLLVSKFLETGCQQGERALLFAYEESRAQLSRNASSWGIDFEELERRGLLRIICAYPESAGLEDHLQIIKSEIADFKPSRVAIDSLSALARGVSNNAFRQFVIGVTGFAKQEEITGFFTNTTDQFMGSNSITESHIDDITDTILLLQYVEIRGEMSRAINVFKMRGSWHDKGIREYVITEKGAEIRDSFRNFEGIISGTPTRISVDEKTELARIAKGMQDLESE
As to the kind of experiment: native gel or EMSA; monomeric KaiC (5 μM; 1 μM for the concentration series) with KaiB1-94 or 7.5 μM KaiBWT in reaction buffer without ATP, 4 °C, 6 h (KaiC_(C/DD) also at 25 °C); 10 % native gel, CBB, densitometry. The following applies: both partners purified.

The next data set deals with T2, KaiC_(K294H/DD) (Thermosynechococcus elongatus BP-1 …, UniProt Q79V60 1-518, K294H | S431D | T432D).
T2 construct: KaiC, Thermosynechococcus elongatus BP-1, 518 residues, K294H in Walker's motif A (C-terminal ATPase motif mutation by the results) plus the DD mutation; Used as monomer (no ATP) and as hexamer (with Mg-ATP); the assay tells which; also called KaiC_(K294H/DD)^1mer; KaiC_(K294H/DD)^6mer
T2 sequence (looked up): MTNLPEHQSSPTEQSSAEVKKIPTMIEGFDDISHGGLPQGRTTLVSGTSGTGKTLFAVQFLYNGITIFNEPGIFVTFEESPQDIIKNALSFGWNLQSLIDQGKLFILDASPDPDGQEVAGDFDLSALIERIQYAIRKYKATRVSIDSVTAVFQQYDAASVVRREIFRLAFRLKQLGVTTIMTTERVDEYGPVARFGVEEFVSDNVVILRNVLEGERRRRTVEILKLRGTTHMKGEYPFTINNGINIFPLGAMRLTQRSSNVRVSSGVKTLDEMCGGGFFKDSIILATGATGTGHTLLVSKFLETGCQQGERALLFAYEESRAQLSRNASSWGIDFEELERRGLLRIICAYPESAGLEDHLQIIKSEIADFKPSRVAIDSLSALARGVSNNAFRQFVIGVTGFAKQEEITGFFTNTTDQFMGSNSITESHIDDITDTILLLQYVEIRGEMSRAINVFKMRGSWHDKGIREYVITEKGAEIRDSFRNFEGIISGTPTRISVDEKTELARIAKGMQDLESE
The data set is described as above. The following applies: both partners purified.

Data set [2] concerns the target B3. The description is as above. The following applies: both partners purified.
For data set [3], the target named is B4. The description is as above. The following applies: both partners purified.
Another data set concerns the target T3, KaiC_(K294H) (Thermosynechococcus elongatus BP-1 …, UniProt Q79V60 1-518, K294H).
T3 construct: KaiC, Thermosynechococcus elongatus BP-1, 518 residues, K294H in Walker's motif A of the C-terminal domain; Used as hexamer formed with Mg-ATP; also called KaiC_(K294H)^6mer
T3 sequence (looked up): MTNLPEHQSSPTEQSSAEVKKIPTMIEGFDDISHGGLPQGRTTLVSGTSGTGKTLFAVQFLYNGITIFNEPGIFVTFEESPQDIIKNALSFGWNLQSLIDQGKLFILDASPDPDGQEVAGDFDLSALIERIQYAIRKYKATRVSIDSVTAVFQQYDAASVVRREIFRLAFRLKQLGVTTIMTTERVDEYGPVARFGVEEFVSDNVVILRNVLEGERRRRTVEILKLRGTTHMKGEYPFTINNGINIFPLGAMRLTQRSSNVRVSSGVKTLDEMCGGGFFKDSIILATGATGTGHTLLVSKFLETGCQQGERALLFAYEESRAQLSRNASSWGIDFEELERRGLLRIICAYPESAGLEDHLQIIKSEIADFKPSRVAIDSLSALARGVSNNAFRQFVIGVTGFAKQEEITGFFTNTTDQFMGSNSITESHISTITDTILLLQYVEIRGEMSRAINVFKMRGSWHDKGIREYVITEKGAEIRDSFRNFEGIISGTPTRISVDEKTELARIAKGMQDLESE
As to the kind of experiment: native gel or EMSA; KaiC hexamer (formed with Mg-ATP, 1 μM) with 5 μM KaiB1-94 in the presence of Mg-ATP at 4 °C; native PAGE, complex bands checked by second-dimension SDS-PAGE. The following applies: both partners purified.

For a further data set, the target named is T4, wild-type KaiC (KaiCWT) (Thermosynechococcus elongatus BP-1 …, UniProt Q79V60 1-518, phosphorylation level of the KaiCWT preparations about 30 % (phosphorylation sites Ser431 and Thr432)).
T4 construct: KaiC, Thermosynechococcus elongatus BP-1, wild type, subunit of 518 amino acid residues; Used as hexamer formed with Mg-ATP; also called KaiCWT^6mer
T4 sequence (looked up): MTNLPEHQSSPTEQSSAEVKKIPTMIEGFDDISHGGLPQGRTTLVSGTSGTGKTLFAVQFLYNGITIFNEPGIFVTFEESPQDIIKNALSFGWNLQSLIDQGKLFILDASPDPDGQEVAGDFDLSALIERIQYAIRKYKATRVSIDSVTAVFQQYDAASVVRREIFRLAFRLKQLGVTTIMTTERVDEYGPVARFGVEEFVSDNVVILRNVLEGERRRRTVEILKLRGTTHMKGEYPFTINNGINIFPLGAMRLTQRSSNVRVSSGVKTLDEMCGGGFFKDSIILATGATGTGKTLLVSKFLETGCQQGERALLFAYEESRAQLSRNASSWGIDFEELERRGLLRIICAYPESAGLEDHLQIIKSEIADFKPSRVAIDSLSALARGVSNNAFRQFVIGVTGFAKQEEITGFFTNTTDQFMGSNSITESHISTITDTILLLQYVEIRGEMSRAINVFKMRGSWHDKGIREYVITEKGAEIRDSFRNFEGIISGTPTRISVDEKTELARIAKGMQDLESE
The data set is described as above. The following applies: both partners purified.

Data set [4] deals with the molecule itself. Put plainly: native gel or EMSA; 5 μM monomeric KaiC incubated with 1 mM ATP with or without 5 mM MgCl2 at 4 °C; monomer to hexamer. On the technique in general: Mobility shift assays separate free from complexed probe on a gel.

B1: mutant KaiB with a C-terminal deletion of residues 95 to 108 (KaiB1-94) (domain or fragment, UniProt Q79V61 1-94, looked up)
chain: MAPLRKTYVLKLYVAGNTPNSVRALKTLNNILEKEFKGVYALKVIDVLKNPQLAEEDKILATPTLAKVLPPPVRRIIGDLSNREKVLIGLDLLY
notes: KaiB, Thermosynechococcus elongatus BP-1, residues 1-94 (C-terminal residues 95-108 deleted)
One may read the EC50 as the concentration that produces a half-maximal response. As to B1, the “t1/2 of complex formation” value in data set [1] was 1.2 h; in data set [3], ~2.5 h. Also, the binding result (in the data set with KaiC_(K53H/DD); with KaiC_(K294H/DD); in data set [2]; with KaiC_(K294H); with wild-type KaiC (KaiCWT)) was “binds” throughout. Further, the EC50 in data set [3] is ~700 nM.

B2: wild-type KaiB (KaiBWT) (natural protein, UniProt Q79V61 1-108, looked up)
chain: MAPLRKTYVLKLYVAGNTPNSVRALKTLNNILEKEFKGVYALKVIDVLKNPQLAEEDKILATPTLAKVLPPPVRRIIGDLSNREKVLIGLDLLYEEIGDQAEDDLGLE
notes: KaiB, Thermosynechococcus elongatus BP-1, wild type, subunit of 108 amino acid residues; also called KaiBWT^4mer; KaiB^4mer
In the case of B2, the binding result in data set [1] is on record as “binds”.

What is called stoichiometry N is a count of units in the complex or per binding partner. As for B3, the “stoichiometry N” value in data set [4] is 6.

As for B4, the “stoichiometry N” value in data set [4] was 6.
